Results published in patent publication US20220089784A1 (University of California, published 2022).
Where two headings read alike, the source gives them in different places.

Tests used:
[1] = molecular target: T1, BoNT/B1 (Clostridium botulinum, UniProt P10844 2-1291); assay: yeast scFv FACS
T1 sequence: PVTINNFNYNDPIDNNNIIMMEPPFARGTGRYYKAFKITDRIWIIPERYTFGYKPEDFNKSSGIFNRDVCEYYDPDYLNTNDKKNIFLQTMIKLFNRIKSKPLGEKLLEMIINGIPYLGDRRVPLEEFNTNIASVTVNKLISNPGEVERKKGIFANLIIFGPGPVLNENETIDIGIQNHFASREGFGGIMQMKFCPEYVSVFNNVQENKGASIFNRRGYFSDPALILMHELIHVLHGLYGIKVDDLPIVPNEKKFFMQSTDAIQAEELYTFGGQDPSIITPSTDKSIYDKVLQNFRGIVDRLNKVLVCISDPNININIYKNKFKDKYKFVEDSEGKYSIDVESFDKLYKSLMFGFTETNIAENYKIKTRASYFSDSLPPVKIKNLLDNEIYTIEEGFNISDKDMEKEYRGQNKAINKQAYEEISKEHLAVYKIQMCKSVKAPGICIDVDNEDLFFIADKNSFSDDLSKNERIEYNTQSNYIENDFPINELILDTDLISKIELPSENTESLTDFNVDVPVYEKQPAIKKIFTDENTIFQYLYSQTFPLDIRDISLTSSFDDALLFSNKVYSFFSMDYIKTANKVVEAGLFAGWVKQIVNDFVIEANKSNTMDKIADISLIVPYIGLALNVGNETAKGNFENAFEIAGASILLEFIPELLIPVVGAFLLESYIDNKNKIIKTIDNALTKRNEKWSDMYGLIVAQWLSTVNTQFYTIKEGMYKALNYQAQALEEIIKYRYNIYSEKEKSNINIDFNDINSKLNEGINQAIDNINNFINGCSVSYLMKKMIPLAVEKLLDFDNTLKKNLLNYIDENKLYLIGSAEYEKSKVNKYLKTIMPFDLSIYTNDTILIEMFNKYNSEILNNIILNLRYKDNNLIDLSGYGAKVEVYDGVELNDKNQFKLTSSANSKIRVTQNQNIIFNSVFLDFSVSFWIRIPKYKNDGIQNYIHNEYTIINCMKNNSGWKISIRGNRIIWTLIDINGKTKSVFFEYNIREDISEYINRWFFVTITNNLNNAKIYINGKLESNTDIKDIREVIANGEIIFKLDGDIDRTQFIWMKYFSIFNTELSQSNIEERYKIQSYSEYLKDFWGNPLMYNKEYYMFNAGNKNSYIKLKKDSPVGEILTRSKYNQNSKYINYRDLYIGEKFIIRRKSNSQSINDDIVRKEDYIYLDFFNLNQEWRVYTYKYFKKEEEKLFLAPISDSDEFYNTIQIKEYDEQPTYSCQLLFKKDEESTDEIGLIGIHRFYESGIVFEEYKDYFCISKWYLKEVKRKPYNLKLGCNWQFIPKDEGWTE

[2] = molecular target: T2, BoNT/B HC (C-terminal domain of the BoNT/B heavy chain, recombinant) (Clostridium botulinum, UniProt P10844 853-1291); assay: yeast scFv FACS
T2 sequence: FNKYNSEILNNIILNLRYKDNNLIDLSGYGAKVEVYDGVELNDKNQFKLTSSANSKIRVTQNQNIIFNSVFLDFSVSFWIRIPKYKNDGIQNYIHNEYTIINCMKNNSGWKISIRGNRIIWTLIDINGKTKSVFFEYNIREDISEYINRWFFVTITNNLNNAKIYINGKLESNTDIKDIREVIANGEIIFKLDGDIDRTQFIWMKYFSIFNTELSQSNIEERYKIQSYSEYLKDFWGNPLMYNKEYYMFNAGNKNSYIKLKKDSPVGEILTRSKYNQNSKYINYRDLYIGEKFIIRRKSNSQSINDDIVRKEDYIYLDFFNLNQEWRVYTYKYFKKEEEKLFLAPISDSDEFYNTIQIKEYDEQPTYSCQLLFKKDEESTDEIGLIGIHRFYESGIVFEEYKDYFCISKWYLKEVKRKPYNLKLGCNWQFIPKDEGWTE

[3] = molecular target: T3, BoNT/F1 (proteolytic BoNT/F) (Clostridium botulinum, UniProt A7GBG3 1-1278); assay: yeast scFv FACS
T3 sequence: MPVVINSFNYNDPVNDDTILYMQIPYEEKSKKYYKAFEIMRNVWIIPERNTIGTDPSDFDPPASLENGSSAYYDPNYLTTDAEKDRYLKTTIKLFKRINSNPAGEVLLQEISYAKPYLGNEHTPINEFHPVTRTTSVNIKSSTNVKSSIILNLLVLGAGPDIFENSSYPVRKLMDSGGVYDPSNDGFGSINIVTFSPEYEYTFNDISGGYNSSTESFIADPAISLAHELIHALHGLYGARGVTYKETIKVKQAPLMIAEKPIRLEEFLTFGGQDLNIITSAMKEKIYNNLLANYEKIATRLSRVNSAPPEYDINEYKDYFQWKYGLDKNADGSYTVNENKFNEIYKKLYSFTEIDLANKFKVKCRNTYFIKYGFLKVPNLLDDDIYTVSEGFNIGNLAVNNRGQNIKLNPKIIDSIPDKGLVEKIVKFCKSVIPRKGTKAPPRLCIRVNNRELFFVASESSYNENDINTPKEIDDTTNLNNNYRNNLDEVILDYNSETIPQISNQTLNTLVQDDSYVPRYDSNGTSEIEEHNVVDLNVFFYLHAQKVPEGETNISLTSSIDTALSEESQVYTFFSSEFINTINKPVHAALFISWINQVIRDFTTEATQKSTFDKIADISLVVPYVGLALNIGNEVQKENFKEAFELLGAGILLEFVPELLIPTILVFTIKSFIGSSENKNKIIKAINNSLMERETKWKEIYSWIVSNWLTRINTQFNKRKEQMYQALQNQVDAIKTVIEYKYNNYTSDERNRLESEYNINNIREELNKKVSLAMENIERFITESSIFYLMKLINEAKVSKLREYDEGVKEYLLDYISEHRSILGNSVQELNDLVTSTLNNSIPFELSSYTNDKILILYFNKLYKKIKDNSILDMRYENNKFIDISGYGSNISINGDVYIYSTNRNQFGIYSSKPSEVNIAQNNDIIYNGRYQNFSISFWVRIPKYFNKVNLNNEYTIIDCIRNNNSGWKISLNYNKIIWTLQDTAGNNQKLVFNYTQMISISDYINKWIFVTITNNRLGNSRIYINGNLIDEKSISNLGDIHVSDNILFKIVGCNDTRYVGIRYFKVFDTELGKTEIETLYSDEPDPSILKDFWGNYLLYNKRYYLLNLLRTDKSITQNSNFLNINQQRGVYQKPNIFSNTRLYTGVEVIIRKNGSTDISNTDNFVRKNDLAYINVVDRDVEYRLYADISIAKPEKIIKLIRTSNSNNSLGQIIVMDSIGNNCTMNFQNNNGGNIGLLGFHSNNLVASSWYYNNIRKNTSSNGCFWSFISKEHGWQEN

[4] = molecular target: T3, BoNT/F1 (proteolytic BoNT/F); assay: yeast scFv FACS; remark: listed apart in the source
[5] = molecular target: BoNT/A light chain (recombinant) (Clostridium botulinum, UniProt P0DPI0 1-448); assay: KinExA, IgG
Chain of BoNT/A light chain (recombinant) (P0DPI0 1-448 limits assumed): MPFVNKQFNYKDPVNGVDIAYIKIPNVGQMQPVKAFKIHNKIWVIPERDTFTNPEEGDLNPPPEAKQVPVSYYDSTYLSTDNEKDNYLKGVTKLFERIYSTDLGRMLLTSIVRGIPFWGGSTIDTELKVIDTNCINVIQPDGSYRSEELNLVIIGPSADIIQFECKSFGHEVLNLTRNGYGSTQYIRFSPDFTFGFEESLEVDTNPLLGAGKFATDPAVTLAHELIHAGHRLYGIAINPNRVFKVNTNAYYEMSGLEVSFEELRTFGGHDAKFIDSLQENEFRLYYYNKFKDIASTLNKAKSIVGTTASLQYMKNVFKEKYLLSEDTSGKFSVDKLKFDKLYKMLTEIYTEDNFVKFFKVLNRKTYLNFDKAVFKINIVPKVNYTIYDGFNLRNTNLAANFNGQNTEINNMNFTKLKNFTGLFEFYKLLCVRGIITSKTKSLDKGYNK

B1: 26C2 scFv (scFv)
scFv: QVQLKQSGPELVKPGASVKLSCKASGYTFTSYDINWVKQRPGQGLEWIGWIYPRDDITKYNEKFKDKATLTVDTSSSTAYMELHSLTSEDSAVYFCARGDYYGSLDYWGQGTTLTVSSVDLKSGGSTSGSGKPGSGEGSSGSARQIVLTQSPAIMSASPGEKVTMTCSASSSVSYMHWYQQKSSTSPKLWIYDTSKLASGVPGRFSGSGSGNSYSLTISSMEAEDVATYYCFQGSGYPLTFGAGTKLEIK
notes: mouse
B1 was tested, and the Kd [1] was 23700 pM and the Kd [2] was 7760 pM.

B2: 26E6 scFv (scFv)
scFv: EVQLQQSGPELVKPGASVKISCKASGYTFADYYINWVKQSHGKSLEWIGDFNPNNGDHSYNQKFKDKATLTVDESSNTAYMELRSLTSEDSAVYYCTREFYYYFDVWGTGTTVTVSSVDLKSGGSTSGSGKPGSGEGSSGSARDIVMSQSPLSLPVSLGDQAFISCRFSQSIVHSNGNTYLEWYLQKPGQSPKLLIYKVSNRFSGVPDRFSGSGSGTDFTLKISRVEAEDLGVYYCFQGSHVPYTFGGGTKLEIK
notes: mouse
Work on B2 yielded a Kd [1] of 4850 pM and a Kd [2] of 889 pM.

B3: 26D9 scFv (scFv)
scFv: DVQLQESGAELVKPGASVKLSCKASGFTFTDYWMHWVKQRPGQGLEWIGMIHPYNGDNNYHEKFKSKATLTVDKSSSTAYMQLSSLTTEDSAVYYCVRNDYDPYYYALDYWGQGTSLTVSAVDLKSGGSTSGSGKPGSGEGSSGSARQIVLTQSPAIMSASPGEKVTMSCRASSSVSYVYWYQQKPGSSPKPWIYRTSNLASGVPVRFSGSGSGTSYSLTISRVEAEDAATYYCQQWSSYPPTFGGGTKLEIK
notes: mouse
B3 gave a Kd [1] of 582 pM and a Kd [2] of 89 pM.

B4: 29A2 scFv (scFv, V domains shown)
VH: EVQLLETGGDLVKPGGSLKLSCAASGFTFSYYGMSWVRQTPDKRLEWVATISSGGSYTYYPDSVKGRFTISRDNAKNTLYLQMSSLKSEDTAMYYCARRRVYYGSSYEDYWGQGTTLTVSS
VL: EIVLTQSPALMSASPGEKVTMTCSASSSVSYMYWYQQKPRSSPKPWIYLTSNLASGVPARFSGSGSGTSYSLTISSMEAEDAATYYCQQWSSNPYTFGGGTKLELK
B4 showed a Kd [3] of 990 pM and a Kd [4] of 990 pM.

B5: 26B2 scFv (scFv)
scFv: DVQLQESGPELVKPGASVKISCKASGYTFADYYINWVKQSHGKSLEWIGDFNPNNGDHSYNQKFKDKATLTVDESSNTAYMELRSLTSEDSAVYYCTREFYYYFDVWGTGTSVTVSSVDLKSGGSTSGSGKPGSGEGSSGSARDIEMTQTPAIMSASPGEKVTMTCSASSSVSSRYLHWYQQKSGASPKLWIYGTSNLASGVPARFSGSGSGTSYSLTISNVEAEDAATYYCQQYHSDPLTFGAGTKLEIK
notes: mouse
B5 gave a Kd [1] of 276 pM and a Kd [2] of 86 pM.

B6: 6A2M IgG (antibody, V domains shown)
VH: EVQLQQSGAELVRPGTSVKLSCKSSGYTFTSDWMHWVIQRPGQGLEWIGVIDPSDSYTNYNQKFKGKATLTVDTSSSTAYMHLSSLTSEDSAVYYCARREGHYYGKAMDYWGQGTSVTVSS
VL: DIVMSQSPASLAVSLGQRATISCRASESVDYDGDSYMNWYQQKPGQPPKLLIYAASNLESGIPARFSGSGSGTDFTLNIHPVEEEDAATYYCLQSNEAPWTFGGGTKLEIK
notes: IgG converted from scFv
With B6 the Kd [5] was 45000 pM.

B7: 6A3M IgG (antibody, V domains shown)
VH: EVQLQQSGAELVKPGASVKLSCKASGYTFTSYWMHWIKQRPGQGLEWIGVIDPSDSYTNYNQKFKGKATLTVDTSSSTAYMQLSSLTSEDSAVYYCATGGNGFFDYWGQGTTLTVSS
VL: DIVLTQSPASLAVSLGQRATISCRASESVDYDGDSYMNWYQQKPGQPPKLLIYAASNLESGIPARFSGSGSGTDFTLNIHPVEEEDAATYYCLQSNEAPWTFGGGTKLELK
notes: IgG converted from scFv
With B7 the Kd [5] was 10000 pM.

B8: 6A4M IgG (antibody, V domains shown)
VH: EVQLQQSGAELVRPGTSVKLSCKASGYTFTSYWMHWVKQRPGQGLEWIGVIDPSDSYTNYNQKFKGKATLTVDTSSSTAYMQLSSLASEDSAVYYCARYPGNRAMDYWGQGTSVTVSS
VL: DIVLTQSPASLAVSLGQRATISCRASESVDYDGDSYMNWYQQKPGQPPKLLIYAASNLESGIPARFSGSGSGTDFTLNIHPVEEEDAATYYCLQSNEAPWTFGGGTKLEIK
notes: IgG converted from scFv
Binder B8 has a Kd [5] of 21000 pM.

B9: 28C11 scFv (scFv, V domains shown)
VH: EVQLQESGGDLVKPGGSLKLSCAASGFTFSYYGMSWVRQTPDKRLEWVATISSGGTYTYYPDSVKGRFTISRDNAKNTLYLQMSSLSSEDTAMYYCARRRSYDSVYWYFDVWGAGTSVTVSS
VL: DIVLTQSPAITAASLGQKVTITCSASSSGSYIHWYQQKSGTSPKLLIYRTSNLASGVPSRFSGSGSGTFYSLTISSVEAEDAADYFCHQWSSYPTFGGGTKLEIK
B9 showed a Kd [3] of 120 pM and a Kd [4] of 120 pM.

B10: 26G5 scFv (scFv)
scFv: EVQLQESGPGLAKPSQTLSLTCSVTGYSITSDYWNWIRKFPGNKLEYMGYISYSGSTYYNPSLKSRISITRDTSKNQYYLQLNSVTTEDTATYYCARSFYDGYLYFDYWGQGTTVTVSSVDLKSGGSTSGSGKPGSGEGSSGSAREIVLTQSPAILSASPGEKVTMTCSASSSVSYMYWYQQKPGSSPRLLIYDTSNLASGVPARFSGSGSGTSYSLTISRVEAEDAATYYCQQWSSYPPTFGDGTRLEIK
notes: mouse
Work on B10 yielded a Kd [1] of 3910 pM and a Kd [2] of 1790 pM.
